Where two headings read alike, the source gives them in different places. One block for each binder: values may come before it. *: point of attachment. Biotin = O=C1N[C@H]2[C@H](CS[C@H]2CCCCC(=O)*)N1; TTDS = Trioxatridecan-succinamic acid linker
What was measured:
[1] = target: His6-AviTag-MBP-TEV-POLE2 (human, UniProt P56282 1-527, biotin on the AviTag (BirA co-expressed, biotin in the medium)); assay: nHU, apparent Kd
[2] = target: T1, catalytic subunit of DNA polymerase ε (POLE), endogenous (human (endogenous in Jurkat and in …, UniProt Q07864 1-2286)); assay: nHU, apparent Kd
[3] = target: T1, catalytic subunit of DNA polymerase ε …; assay: nHU, apparent Kd; remark: listed apart in the source
HA-POLE2 = HA-POLE2 (human, UniProt P56282 1-527); assay: nHU, apparent Kd, f = 0.82
HA-MBP-POLE2 = HA-MBP-POLE2 (human, UniProt P56282 1-527); assay: nHU in cell extract, apparent Kd, f = 0.37
Chain of HA-MBP-POLE2 (P56282 whole entry): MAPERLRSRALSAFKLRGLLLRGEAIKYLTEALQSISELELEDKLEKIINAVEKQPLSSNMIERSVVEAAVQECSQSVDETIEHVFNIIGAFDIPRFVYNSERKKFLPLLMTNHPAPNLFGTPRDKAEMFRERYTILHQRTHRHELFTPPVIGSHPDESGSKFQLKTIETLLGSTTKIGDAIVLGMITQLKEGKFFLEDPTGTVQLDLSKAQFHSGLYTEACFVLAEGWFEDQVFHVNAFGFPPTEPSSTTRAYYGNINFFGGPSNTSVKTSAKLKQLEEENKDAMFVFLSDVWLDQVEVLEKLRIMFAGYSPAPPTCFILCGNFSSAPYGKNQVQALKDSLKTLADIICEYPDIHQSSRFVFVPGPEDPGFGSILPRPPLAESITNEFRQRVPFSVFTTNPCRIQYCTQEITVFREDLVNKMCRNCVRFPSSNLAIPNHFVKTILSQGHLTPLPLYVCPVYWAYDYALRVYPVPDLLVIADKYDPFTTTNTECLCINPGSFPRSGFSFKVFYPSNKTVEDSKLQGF

T1 sequence (Q07864 whole entry): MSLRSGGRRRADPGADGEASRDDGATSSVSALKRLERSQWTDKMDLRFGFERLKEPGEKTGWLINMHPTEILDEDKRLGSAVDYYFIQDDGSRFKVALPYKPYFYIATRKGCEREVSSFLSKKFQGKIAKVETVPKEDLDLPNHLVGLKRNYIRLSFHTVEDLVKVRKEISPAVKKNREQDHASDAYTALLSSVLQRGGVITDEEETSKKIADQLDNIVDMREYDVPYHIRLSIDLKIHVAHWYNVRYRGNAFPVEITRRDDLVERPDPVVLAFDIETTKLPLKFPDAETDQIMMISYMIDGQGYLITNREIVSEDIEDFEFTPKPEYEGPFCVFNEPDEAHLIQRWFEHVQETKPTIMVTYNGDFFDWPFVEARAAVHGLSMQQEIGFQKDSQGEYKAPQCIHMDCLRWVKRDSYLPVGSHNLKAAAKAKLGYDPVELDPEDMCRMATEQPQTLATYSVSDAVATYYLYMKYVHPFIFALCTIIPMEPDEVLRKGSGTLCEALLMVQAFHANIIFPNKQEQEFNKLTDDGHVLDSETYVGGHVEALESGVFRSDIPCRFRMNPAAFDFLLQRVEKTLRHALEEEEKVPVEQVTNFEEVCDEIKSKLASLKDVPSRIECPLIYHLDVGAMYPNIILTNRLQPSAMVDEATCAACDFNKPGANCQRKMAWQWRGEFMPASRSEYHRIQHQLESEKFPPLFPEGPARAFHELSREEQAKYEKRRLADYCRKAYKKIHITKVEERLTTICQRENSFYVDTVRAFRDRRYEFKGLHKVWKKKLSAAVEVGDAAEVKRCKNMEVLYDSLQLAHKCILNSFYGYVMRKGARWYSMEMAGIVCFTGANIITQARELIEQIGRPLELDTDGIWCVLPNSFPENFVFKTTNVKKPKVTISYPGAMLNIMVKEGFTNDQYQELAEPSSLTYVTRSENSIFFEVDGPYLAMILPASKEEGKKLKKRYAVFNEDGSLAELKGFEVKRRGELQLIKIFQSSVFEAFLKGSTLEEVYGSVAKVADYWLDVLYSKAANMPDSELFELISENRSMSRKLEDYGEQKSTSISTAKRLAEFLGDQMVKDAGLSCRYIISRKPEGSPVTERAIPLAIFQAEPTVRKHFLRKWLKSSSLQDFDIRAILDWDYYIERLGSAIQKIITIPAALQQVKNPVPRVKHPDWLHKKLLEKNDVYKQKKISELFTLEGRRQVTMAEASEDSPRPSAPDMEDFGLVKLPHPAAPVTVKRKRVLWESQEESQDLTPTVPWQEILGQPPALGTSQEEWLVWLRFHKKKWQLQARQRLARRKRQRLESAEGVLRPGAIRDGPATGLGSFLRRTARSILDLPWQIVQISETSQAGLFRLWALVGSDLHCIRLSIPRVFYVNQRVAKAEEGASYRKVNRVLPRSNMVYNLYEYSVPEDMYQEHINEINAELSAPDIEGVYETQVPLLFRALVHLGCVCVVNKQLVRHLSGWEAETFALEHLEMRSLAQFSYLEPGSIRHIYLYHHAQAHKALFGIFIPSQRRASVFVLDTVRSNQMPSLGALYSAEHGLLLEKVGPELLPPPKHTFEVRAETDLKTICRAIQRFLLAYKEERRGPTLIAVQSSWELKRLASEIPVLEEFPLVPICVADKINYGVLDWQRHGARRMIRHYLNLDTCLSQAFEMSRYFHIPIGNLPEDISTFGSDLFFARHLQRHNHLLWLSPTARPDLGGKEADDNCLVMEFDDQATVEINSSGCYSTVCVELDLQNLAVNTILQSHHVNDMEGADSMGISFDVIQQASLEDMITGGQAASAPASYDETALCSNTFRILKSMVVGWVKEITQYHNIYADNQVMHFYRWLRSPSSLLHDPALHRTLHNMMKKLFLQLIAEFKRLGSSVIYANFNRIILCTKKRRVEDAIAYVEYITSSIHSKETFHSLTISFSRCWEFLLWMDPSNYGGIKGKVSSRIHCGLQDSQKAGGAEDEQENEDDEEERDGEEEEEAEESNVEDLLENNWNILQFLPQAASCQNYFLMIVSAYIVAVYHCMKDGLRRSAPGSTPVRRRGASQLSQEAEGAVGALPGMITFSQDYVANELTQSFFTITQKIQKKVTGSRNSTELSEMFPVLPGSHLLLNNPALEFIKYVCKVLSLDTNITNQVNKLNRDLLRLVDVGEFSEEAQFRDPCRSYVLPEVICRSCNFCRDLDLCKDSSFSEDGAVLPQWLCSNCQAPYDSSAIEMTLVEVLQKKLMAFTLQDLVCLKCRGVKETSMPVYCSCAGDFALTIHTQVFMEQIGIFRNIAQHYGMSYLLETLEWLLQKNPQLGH
Chain of His6-AviTag-MBP-TEV-POLE2 (P56282 whole entry): as the sequence (P56282 whole entry) above
Chain of HA-POLE2 (P56282 whole entry): as above

B1: HA-TTF2, full length, intact NPF motifs (natural protein)
chain: MEEVRCPEHGTFCFLKTGVRDGPNKGKSFYVCRADTCSFVRATDIPVSHCLLHEDFVVELQGLLLPQDKKEYRLFFRCIRSKAEGKRWCGSIPWQDPDSKEHSVSNKSQHASETFHHSSNWLRNPFKVLDKNQEPALWKQLIKGEGEEKKADKKQREKGDQLFDQKKEQKPEMMEKDLSSGLVPKKKQSVVQEKKQEEGAEIQCEAETGGTHKRDFSEIKSQQCQGNELTRPSASSQEKSSGKSQDVQRESEPLREKVTQLLPQNVHSHNSISKPQKGGPLNKEYTNWEAKETKAKDGPSIQATQKSLPQGHFQERPETHSVPAPGGPAAQAAPAAPGLSLGEGREAATSSDDEEEDDVVFVSSKPGSPLLFDSTLDLETKENLQFPDRSVQRKVSPASGVSKKVEPSDPVARRVYLTTQLKQKKSTLASVNIQALPDKGQKLIKQIQELEEVLSGLTLSPEQGTNEKSNSQVPQQSHFTKTTTGPPHLVPPQPLPRRGTQPVGSLELKSACQVTAGGSSQCYRGHTNQDHVHAVWKITSEAIGQLHRSLESCPGETVVAEDPAGLKVPLLLHQKQALAWLLWRESQKPQGGILADDMGLGKTLTMIALILTQKNQEKKEEKEKSTALTWLSKDDSCDFTSHGTLIICPASLIHHWKNEVEKRVNSNKLRVYLYHGPNRDSRARVLSTYDIVITTYSLVAKEIPTNKQEAEIPGANLNVEGTSTPLLRIAWARIILDEAHNVKNPRVQTSIAVCKLQACARWAVTGTPIQNNLLDMYSLLKFLRCSPFDEFNLWRSQVDNGSKKGGERLSILTKSLLLRRTKDQLDSTGRPLVILPQRKFQLHHLKLSEDEETVYNVFFARSRSALQSYLKRHESRGNQSGRSPNNPFSRVALEFGSEEPRHSEAADSPRSSTVHILSQLLRLRQCCCHLSLLKSALDPMELKGEGLVLSLEEQLSALTLSELRDSEPSSTVSLNGTFFKMELFEGMRESTKISSLLAELEAIQRNSASQKSVIVSQWTNMLKVVALHLKKHGLTYATIDGSVNPKQRMDLVEAFNHSRGPQVMLISLLAGGVGLNLTGGNHLFLLDMHWNPSLEDQACDRIYRVGQQKDVVIHRFVCEGTVEEKILQLQEKKKDLAKQVLSGSGESVTKLTLADLRVLFGI
Kd [1]: 300 nM

B2: HA-WDHD1, full length, intact NPF motif (natural protein)
chain: MPATRKPMRYGHTEGHTEVCFDDSGSFIVTCGSDGDVRIWEDLDDDDPKFINVGEKAYSCALKSGKLVTAVSNNTIQVHTFPEGVPDGILTRFTTNANHVVFNGDGTKIAAGSSDFLVKIVDVMDSSQQKTFRGHDAPVLSLSFDPKDIFLASASCDGSVRVWQISDQTCAISWPLLQKCNDVINAKSICRLAWQPKSGKLLAIPVEKSVKLYRRESWSHQFDLSDNFISQTLNIVTWSPCGQYLAAGSINGLIIVWNVETKDCMERVKHEKGYAICGLAWHPTCGRISYTDAEGNLGLLENVCDPSGKTSSSKVSSRVEKDYNDLFDGDDMSNAGDFLNDNAVEIPSFSKGIINDDEDDEDLMMASGRPRQRSHILEDDENSVDISMLKTGSSLLKEEEEDGQEGSIHNLPLVTSQRPFYDGPMPTPRQKPFQSGSTPLHLTHRFMVWNSIGIIRCYNDEQDNAIDVEFHDTSIHHATHLSNTLNYTIADLSHEAILLACESTDELASKLHCLHFSSWDSSKEWIIDLPQNEDIEAICLGQGWAAAATSALLLRLFTIGGVQKEVFSLAGPVVSMAGHGEQLFIVYHRGTGFDGDQCLGVQLLELGKKKKQILHGDPLPLTRKSYLAWIGFSAEGTPCYVDSEGIVRMLNRGLGNTWTPICNTREHCKGKSDHYWVVGIHENPQQLRCIPCKGSRFPPTLPRPAVAILSFKLPYCQIATEKGQMEEQFWRSVIFHNHLDYLAKNGYEYEESTKNQATKEQQELLMKMLALSCKLEREFRCVELADLMTQNAVNLAIKYASRSRKLILAQKLSELAVEKAAELTATQVEEEEEEEDFRKKLNAGYSNTATEWSQPRFRNQVEEDAEDSGEADDEEKPEIHKPGQNSFSKSTNSSDVSAKSGAVTFSSQGRVNPFKVSASSKEPAMSMNSARSTNILDNMGKSSKKSTALSRTTNNEKSPIIKPLIPKPKPKQASAASYFQKRNSQTNKTEEVKEENLKNVLSETPAICPPQNTENQRPKTGFQMWLEENRSNILSDNPDFSDEADIIKEGMIRFRVLSTEERKVWANKAKGETASEGTEAKKRKRVVDESDETENQEEKAKENLNLSKKQKPLDFSTNQKLSAFAFKQE
Kd [1]: 70 nM

B4: HA-ERCC6L, full length, intact NPF motif (natural protein)
chain: MEASRRFPEAEALSPEQAAHYLRYVKEAKEATKNGDLEEAFKLFNLAKDIFPNEKVLSRIQKIQEALEELAEQGDDEFTDVCNSGLLLYRELHNQLFEHQKEGIAFLYSLYRDGRKGGILADDMGLGKTVQIIAFLSGMFDASLVNHVLLIMPTNLINTWVKEFIKWTPGMRVKTFHGPSKDERTRNLNRIQQRNGVIITTYQMLINNWQQLSSFRGQEFVWDYVILDEAHKIKTSSTKSAICARAIPASNRLLLTGTPIQNNLQELWSLFDFACQGSLLGTLKTFKMEYENPITRAREKDATPGEKALGFKISENLMAIIKPYFLRRTKEDVQKKKSSNPEARLNEKNPDVDAICEMPSLSRKNDLIIWIRLVPLQEEIYRKFVSLDHIKELLMETRSPLAELGVLKKLCDHPRLLSARACCLLNLGTFSAQDGNEGEDSPDVDHIDQVTDDTLMEESGKMIFLMDLLKRLRDEGHQTLVFSQSRQILNIIERLLKNRHFKTLRIDGTVTHLLEREKRINLFQQNKDYSVFLLTTQVGGVGLTLTAATRVVIFDPSWNPATDAQAVDRVYRIGQKENVVVYRLITCGTVEEKIYRRQVFKDSLIRQTTGEKKNPFRYFSKQELRELFTIEDLQNSVTQLQLQSLHAAQRKSDIKLDEHIAYLQSLGIAGISDHDLMYTCDLSVKEELDVVEESHYIQQRVQKAQFLVEFESQNKEFLMEQQRTRNEGAWLREPVFPSSTKKKCPKLNKPQPQPSPLLSTHHTQEEDISSKMASVVIDDLPKEGEKQDLSSIKVNVTTLQDGKGTGSADSIATLPKGFGSVEELCTNSSLGMEKSFATKNEAVQKETLQEGPKQEALQEDPLESFNYVLSKSTKADIGPNLDQLKDDEILRHCNPWPIISITNESQNAESNVSIIEIADDLSASHSALQDAQASEAKLEEEPSASSPQYACDFNLFLEDSADNRQNFSSQSLEHVEKENSLCGSAPNSRAGFVHSKTCLSWEFSEKDDEPEEVVVKAKIRSKARRIVSDGEDEDDSFKDTSSINPFNTSLFQFSSVKQFDASTPKNDISPPGRFFSSQIPSSVNKSMNSRRSLASRRSLINMVLDHVEDMEERLDDSSEAKGPEDYPEEGVEESSGEASKYTEEDPSGETLSSENKSSWLMTSKPSALAQETSLGAPEPLSGEQLVGSPQDKAAEATNDYETLVKRGKELKECGKIQEALNCLVKALDIKSADPEVMLLTLSLYKQLNNN
Kd [1]: 2400 nM

B7: NPF motif peptide of DONSON (residues 71-88) (peptide)
peptide: {Biotin-TTDS}-GPAAARRNPFARLDNRPR-NH2
Kd (HA-POLE2): 520 nM
Kd (HA-MBP-POLE2): 1300 nM

More lines, now with the values ahead:

Kd [2]: 720 nM
B3: NPF motif peptide of TTF2 (residues 116-143) (peptide)
peptide: HHSSNWLRNPFKVLDKNQEPALWKQLIK
HELM: PEPTIDE1{[O=C1N[C@H]2[C@H](CS[C@H]2CCCCC(=O)[*:2])N1].[O=C(CCCCCN[*:1])[*:2]].H.H.S.S.N.W.L.R.N.P.F.K.V.L.D.K.N.Q.E.P.A.L.W.K.Q.L.I.K.[am]}$$$$V2.0
SMILES: CC[C@H](C)[C@H](NC(=O)[C@H](CC(C)C)NC(=O)[C@H](CCC(N)=O)NC(=O)[C@H](CCCCN)NC(=O)[C@H](Cc1c[nH]c2ccccc12)NC(=O)[C@H](CC(C)C)NC(=O)[C@H](C)NC(=O)[C@@H]1CCCN1C(=O)[C@H](CCC(=O)O)NC(=O)[C@H](CCC(N)=O)NC(=O)[C@H](CC(N)=O)NC(=O)[C@H](CCCCN)NC(=O)[C@H](CC(=O)O)NC(=O)[C@H](CC(C)C)NC(=O)[C@@H](NC(=O)[C@H](CCCCN)NC(=O)[C@H](Cc1ccccc1)NC(=O)[C@@H]1CCCN1C(=O)[C@H](CC(N)=O)NC(=O)[C@H](CCCNC(=N)N)NC(=O)[C@H](CC(C)C)NC(=O)[C@H](Cc1c[nH]c2ccccc12)NC(=O)[C@H](CC(N)=O)NC(=O)[C@H](CO)NC(=O)[C@H](CO)NC(=O)[C@H](Cc1c[nH]cn1)NC(=O)[C@H](Cc1c[nH]cn1)NC(=O)CCCCCNC(=O)CCCC[C@@H]1SC[C@@H]2NC(=O)N[C@@H]21)C(C)C)C(=O)N[C@@H](CCCCN)C(N)=O

Kd [3]: 2500 nM
B5: NPF motif peptide of POLA1 (residues 177-206) (peptide)
peptide: PVMILKKKRSIGASPNPFSVHTATAVPSGK
HELM: PEPTIDE1{[O=C1N[C@H]2[C@H](CS[C@H]2CCCCC(=O)[*:2])N1].[O=C(CCCCCN[*:1])[*:2]].P.V.M.I.L.K.K.K.R.S.I.G.A.S.P.N.P.F.S.V.H.T.A.T.A.V.P.S.G.K.[am]}$$$$V2.0
SMILES: CC[C@H](C)[C@H](NC(=O)[C@H](CO)NC(=O)[C@H](CCCNC(=N)N)NC(=O)[C@H](CCCCN)NC(=O)[C@H](CCCCN)NC(=O)[C@H](CCCCN)NC(=O)[C@H](CC(C)C)NC(=O)[C@@H](NC(=O)[C@H](CCSC)NC(=O)[C@@H](NC(=O)[C@@H]1CCCN1C(=O)CCCCCNC(=O)CCCC[C@@H]1SC[C@@H]2NC(=O)N[C@@H]21)C(C)C)[C@@H](C)CC)C(=O)NCC(=O)N[C@@H](C)C(=O)N[C@@H](CO)C(=O)N1CCC[C@H]1C(=O)N[C@@H](CC(N)=O)C(=O)N1CCC[C@H]1C(=O)N[C@@H](Cc1ccccc1)C(=O)N[C@@H](CO)C(=O)N[C@H](C(=O)N[C@@H](Cc1c[nH]cn1)C(=O)N[C@H](C(=O)N[C@@H](C)C(=O)N[C@H](C(=O)N[C@@H](C)C(=O)N[C@H](C(=O)N1CCC[C@H]1C(=O)N[C@@H](CO)C(=O)NCC(=O)N[C@@H](CCCCN)C(N)=O)C(C)C)[C@@H](C)O)[C@@H](C)O)C(C)C

Kd [2]: 14000 nM
B6: NPF motif peptide of WDHD1 (residues 906-924) (peptide)
peptide: SSQGRVNPFKVSASSKEPA
HELM: PEPTIDE1{[O=C1N[C@H]2[C@H](CS[C@H]2CCCCC(=O)[*:2])N1].[O=C(CCCCCN[*:1])[*:2]].S.S.Q.G.R.V.N.P.F.K.V.S.A.S.S.K.E.P.A.[am]}$$$$V2.0
SMILES: CC(C)[C@H](NC(=O)[C@H](CCCCN)NC(=O)[C@H](Cc1ccccc1)NC(=O)[C@@H]1CCCN1C(=O)[C@H](CC(N)=O)NC(=O)[C@@H](NC(=O)[C@H](CCCNC(=N)N)NC(=O)CNC(=O)[C@H](CCC(N)=O)NC(=O)[C@H](CO)NC(=O)[C@H](CO)NC(=O)CCCCCNC(=O)CCCC[C@@H]1SC[C@@H]2NC(=O)N[C@@H]21)C(C)C)C(=O)N[C@@H](CO)C(=O)N[C@@H](C)C(=O)N[C@@H](CO)C(=O)N[C@@H](CO)C(=O)N[C@@H](CCCCN)C(=O)N[C@@H](CCC(=O)O)C(=O)N1CCC[C@H]1C(=O)N[C@@H](C)C(N)=O

Reference: article PMC12808100 (2025)
